The assay addresses His-tagged eukaryotic initiation factor 6 (eIF6), full length recombinant (UniProt P56537). Description: AlphaScreen or HTRF; competition: serial dilution of non-biotinylated 60S against the optimised assay (eIF6 75 nM, 60S-Bio 0.5 nM); PBS pH 7.4, 5 mM MgCl2, 0.2% BSA, 0.02% Tween-20; room temperature; normalised between 100% displacement (no eIF6) and 0% displacement. On the technique in general: Alpha assays give light when donor and acceptor beads are brought close together.

Take “non-biotinylated 60S ribosomal subunit (complex)”: the IC50 stood at 0.28 nM.

In general, IC50 refers to the concentration at which inhibition is half-maximal.

The record behind these values is publication PMC7017188.
